Data as given in patent publication US20090142345A1.

Key:
[1] = molecular target: DDR1bDN protein (dominant negative type DDR1b not having kinase activity) (human) (UniProt Q08345); experiment: cell-based or functional assay
[2] = molecular target: human DDR1b protein (Discoidin Domain Receptor 1, isoform b) (human) (UniProt Q08345); experiment: cell-based or functional assay

cell protection inhibitory activity at 33 µg/mL, relative to the change induced by type IV collagen as 100%, HCT116 cells (Caspase-Glo 3/7 Assay) [2] | cell protection inhibitory activity at 1 mg/mL, relative to the absorbance change induced by type IV collagen as 100%, DDR1FL-#117 cells [2] | Substance | suppression of serum-removal-induced apoptosis by addition of type IV collagen in DDR1bDN-#206 cells (Cell Death Detection ELISA) [1] | suppression of serum-removal-induced apoptosis by addition of type IV collagen in DDR1FL-#117 cells (Cell Death Detection ELISA) [2]
– | – | type IV collagen (Sigma Company) (ligand) | 34% | 53%
0% | 1.7% | non-immunized rabbit IgG (Jackson Immunoresearch Company) (antibody) | – | –
